According to article PMC4557345:

Target: Drosophila Orai (dOrai), expressed in HEK293T cells (Drosophila) (UniProt Q9U6B8)
Sequence of UniProt Q9U6B8 (Q9U6B8 whole entry): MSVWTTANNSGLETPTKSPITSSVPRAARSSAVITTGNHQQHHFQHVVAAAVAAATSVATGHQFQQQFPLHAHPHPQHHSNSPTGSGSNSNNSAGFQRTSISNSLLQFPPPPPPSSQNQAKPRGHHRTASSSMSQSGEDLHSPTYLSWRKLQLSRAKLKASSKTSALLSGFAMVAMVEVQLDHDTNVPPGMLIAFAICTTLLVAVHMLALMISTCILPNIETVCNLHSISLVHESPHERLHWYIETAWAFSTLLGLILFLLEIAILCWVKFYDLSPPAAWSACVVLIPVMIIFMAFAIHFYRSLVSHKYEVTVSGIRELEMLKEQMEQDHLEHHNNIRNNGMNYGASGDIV

recovery time constant of the light-activated whole-cell current (patch clamp, HEK293T), against dmBACCS2 (fold of dmBACCS2)	Substance
< 0.5	dmBACCS2-N425S
> 100	dmBACCS2-V416L
